The data set in a line: yeast display, Sf9 membrane polyspecificity reagent, FACS + sequencing; frameworks hold sequencing errors. In a few lines: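 Using colony PCR, genes from sorted yeast display clones were amplified, then sequenced on MiSeq at 2 × 250 and filtered by CDR length. The clones had been stained with 10% biotinylated, detergent-solubilized Sf9 membrane reagent for 1 hour at 4 °C and sorted by FACS into low and high (top ~1%) gates on anti-HA and streptavidin fluorescence. Polyreactivity labels come from the gate of origin.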
With “QVQLVESGGGLVQAGGSLRLSCGASGGIFYLYAMGWSRQAPGKERELVAAITWSADSTYYADSVKGRFTISRDNAKNTVYLQMNSLKPEDTAVYYCNADVAWQYGKGWSWDIDDYWRQGTQVTVSS”, the “polyreactivity (PSR sort gate)” value is recorded as “low polyreactivity”. For the sequence “QVQLVESGGGLVQAGGSLRLSCGASGRIISKYAMGWYRQAPGKERELVAAITSRGGNTYYAVSVKGRFTISRDNAKNTVYFQMYSLNPEDTAVYSCNTSPQSRYVFGRVDSWGQGTQVTVSS”, the “polyreactivity (PSR sort gate)” value is recorded as “high polyreactivity”. With “QVQLVESGGGLVQAGGSLRLSCGASGRTFFWYDMGWYRQAPGKERELVAAISSSTRTKYADSVKGRFTISRDNAKNTVYLQMNSLKPEDSAVSYCAATSDYYHYWYYSSVRRFDYWGQGTQVTVSS”, the “polyreactivity (PSR sort gate)” value is listed as “high polyreactivity”.

“QVQLVESGGGLVQAGGSLRLSCGASGRTFGRYAMGWYRQAPGKERELVDAITWSGGSTYYADSVKGRFTISRDNAKNTVYLQMNSLKPEDTAVYYCAASGYPIYHDDYWGQGTQVTVSS”: the “polyreactivity (PSR sort gate)” value was “low polyreactivity”. On to “QVQLVESGGGLVQAGGSLRLSCGASGRTFISNAMGWYRQAPGKERELVATINSGGSTNYADSVKGRFTISRDNAKNTVYLQMNSLKPEDTAVYYCARRVRYKHYDYWGQGTQVTVSS”, for which the “polyreactivity (PSR sort gate)” value is recorded as “high polyreactivity”. “QVQLVESGGGLVQAGGSLRLSCGASGSIFWVYAMGWYRQAPGKERELVAAISNSGSTNYADSVKGRFTISRDNAKNTVYLQMNSLKPADTAVYYCAKDSLVDHVGGYDYWGQGTQVTVSS”: the “polyreactivity (PSR sort gate)” value is listed as “low polyreactivity”.

With “QVQLVESGGGLVQAGGSLRLSCGGSGSTFYVNAMGWYRQAPGKEREFVAAITWNSGSTYYADSVKGRFTISRDNAKNTVYLQMHSLKPEDTAVYYCAAVLSVRVYGYDYWGQGTQVTVSS”, the “polyreactivity (PSR sort gate)” value is listed as “low polyreactivity”.

For “QVQLVESGGGLVQAGGSLRLSCPASGFIYWSYAMGWYRQAPGKERELVADIDSDASTDYADSVKGRFTITRDNAKNTVYLQMNSLKPEDTAVYYCAALASIQQYPGNFYYWGQGTQVTVSS”, the “polyreactivity (PSR sort gate)” value is given as “high polyreactivity”.

On to “QVQLVESGGGLVQAGGSLRLSCPASGFNFSHNAMGWYRQAPGKERELVAAITWSGAITSYADSVKGRFTISRDNAKNTVYLQMNILKPEDTAVYYCAKLWSWDLSRYGPRVDYWGQGTQVTVSS”, for which the “polyreactivity (PSR sort gate)” value is reported as “low polyreactivity”. In the case of “QVQLVESGGGLVQAGGSLRLSCPASGFTFRRYAMGWSRQQPGKESELDAAITRNGGSTYYADSVKGRFTISRDNAKNTVYLLINRLKPEDTAVYYCNAVLYTPVYDCFDSWGQGTQVTVSS”, the “polyreactivity (PSR sort gate)” value is given as “high polyreactivity”. In the case of “QVQLVESGGGLVQAGGSLRLSCPASGIIFYGYTMGWYRQEPGKERELVAAISRSGGRTYYADSVKGRFTISRDNAKYTVYLQMNSLKPEDTAVYYCAATGSYSDRVEDEFWGQGTQVTVST”, the “polyreactivity (PSR sort gate)” value was “high polyreactivity”. On to “QVQLVESGGGLVQAGGSLRLSCPASGITFHGYAMGWYTQEPGKERELVAAITRGGSTYYADSVKGRFTISRDNAKNTVYLQMNSLKPEDTAVYYCAARRVGYSTNYYHYNYWGQGTQVSVSS”, for which the “polyreactivity (PSR sort gate)” value is “high polyreactivity”. With “QVQLVESGGGLVQAGGSLRLSCPASGLIFRRNVMGRYRQAPGKERELVAAISRGGSTYNADSVKGRFTISRDNAKNTVFLQMNSLNPEDTAVYYCAAAYTRYVVRGDFWGQGTQVTVSS”, the “polyreactivity (PSR sort gate)” value is listed as “high polyreactivity”. Take “QVQLVESGGGLVQAGGSLRLSCPASGRIFKSYAMGWYRHAPGKERELVAAINWSGGSKYYADSVKGRFTISRDNAKNTVYLQMNSLKPEDTAVYYCAAYFYGRWPYGTGYYYWGQGTQVTVSS”: the “polyreactivity (PSR sort gate)” value was “high polyreactivity”. The same measure for “QVQLVESGGGLVQAGGSLRLSCPASGRIFYIYTMGWYRQAPGKERELVASITYNGGSTYYADSVKGRFTISRDNAKNTVYLQMNSLKPEDTAVYYCNANSRSPTYRYRSWPYNYWGQGTQVTVSS”: “high polyreactivity”. The same measure for “QVQLVESGGGLVQAGGSLRLSCPASGRIIGGNAMGWYRQAPGKEREFVAAIRASGGSTHYADSVKGRFTISRDNAKNTVYLQMNSLKPEDTAVYDCNALSRNTHLYDYWGQGTQVTVSS”: “high polyreactivity”.

“QVQLVESGGGLVQAGGSLRLSCPASGRIVANAMGWYIQAPGKERELVAAISSVGSTNYADSVKGRFTISRDNAKNTVYLQMNSLKPEDTAVYYCAARGYRWYIAVDFWGQGTQVTVSS”: the “polyreactivity (PSR sort gate)” value is listed as “low polyreactivity”. Take “QVQLVESGGGLVQAGGSLRLSCPASGRIYGYYVMGWYRQAPGKERELVASITSGGSTYYADSVKRRFTISRDNAKYTVYFQMNSLKPEDTAVYDCAARRAWSWKIYDYWGQGTQVTVSS”: the “polyreactivity (PSR sort gate)” value is recorded as “high polyreactivity”. In the case of “QVQLVESGGGLVQAGGSLRLSCPASGRTFDYNAMGWYRQAPGKERELVAAITSSGGSTYYADSVKGRFTISRDNAKNTVYLQMNSLKPEDSAVYYCATDGQSPYYIYYWGQGTQVTVSS”, the “polyreactivity (PSR sort gate)” value is on record as “low polyreactivity”.

Turning to “QVQLVESGGGLVQAGGSLRLSCPASGRTFSSYAMGWYRPAPGKERELVAAISRRGGSTYYADSVKGRFTISRDNAKNTVYLKMNSLKPEDTAVYYCAADVYKQYGYYYWGQGSQVTVSS”, the “polyreactivity (PSR sort gate)” value is given as “high polyreactivity”. Regarding “QVQLVESGGGLVQAGGSLRLSCPASGRTMGGNAMGWYRQAPGKEREFVARISTRGVRKYYADSVKGRFTISRDNAKNTVYLQMNSLKPEDTAVYYCAKHVSYGHIGAYPDRDSWGQGTQVTVSS”, the “polyreactivity (PSR sort gate)” value is reported as “low polyreactivity”. In the case of “QVQLVESGGGLVQAGGSLRLSCPASGSIFDFYAMGWYRQAPGKERELVAAIDDIDDSTYYADSVKGRFTISRDNAKNTVYLQMNSLKPEDTAVYDCAAELRPGYRSSYGLIYDYWGQGTQVTVSS”, the “polyreactivity (PSR sort gate)” value is “low polyreactivity”.

Consider “QVQLVESGGGLVQAGGSLRLSCPASGSIFRSYAMGWYRPAPGKERELVASISRRGGSSYYADSVKGRFTISRDNAKNTVYLQMNSLKPEDTAVYYCAAVRYNSRGSTTPSEMYYWGQGTQVTVSS”, for which the “polyreactivity (PSR sort gate)” value is on record as “low polyreactivity”. As for “QVQLVESGGGLVQAGGSLRLSCPASGSIFSLNAMGWSRQAPGKERELVAASGGGSTYYADSVKGRFTISRDNAKNTVYLQMNSLKPEDTAVYYCAARVLTDELDYWGQGTQVTVSS”, the “polyreactivity (PSR sort gate)” value is given as “low polyreactivity”. As for “QVQLVESGGGLVQAGGSLRLSCPASGSIFYSYAMGWYRQAPGKERELVAAISWDASTYYADSVKGRFTISRDNAKNTVYLQMNSLKPEYTAVYYCNAVYRVWYAEWSTVGSPHDYWGQGTQVTVSS”, the “polyreactivity (PSR sort gate)” value is recorded as “low polyreactivity”.

With “QVQLVESGGGLVQAGGSLRLSCPASGSTFRYYAMAWYRQAPGKERELVAGISSSGGSTYYADSVKGRFTISRDNAKNTVYLQMNSLKPEDTAVYYCNAARGTSRSLAVFADYDYWGQGTQVTVSS”, the “polyreactivity (PSR sort gate)” value is on record as “high polyreactivity”.

Take “QVQLVESGGGLVQAGGSLRLSCPASGSTYLIYAMGWYRQAPGKERELVARITSTGSTYYADSVKRRFTISRDNAMNTVYLHMNSLKPEDTAVYYCNAAGYQYYWHYYWGQGTQVTVSS”: the “polyreactivity (PSR sort gate)” value is “low polyreactivity”. Turning to “QVQLVESGGGLVQAGGSLRLSCPATGSTFGSYAMAWYRPAPGKERELVADISSRGASTYYADSVKGRFTISRDNAKNTVYLQMNSLKPEDTAVYYCARDVYIWYGYGYFPEYEYWGQGTQVTVSS”, the “polyreactivity (PSR sort gate)” value was “low polyreactivity”. Consider “QVQLVESGGGLVQAGGSLRLSCSASGFTFEEYAMGWYRQAPGKERELVAAIDYTVGSTYYADSVKGRFTISRDNAKNTVYLQINSLKPEDTAVYYCNVDLSYSFNSAYGYWGQGTQVSVSS”, for which the “polyreactivity (PSR sort gate)” value is reported as “low polyreactivity”.

For the sequence “QVQLVESGGGLVQAGGSLRLSCSASGFTIYYYTMGWYRQAPGKERELVAAITRSGGRTYYADSVKGRFTISRDNSKNTVYLQMISLKPEDPAVYYCAASTYNNFWYLGYGYWGQGTQVTVSS”, the “polyreactivity (PSR sort gate)” value was “high polyreactivity”. In the case of “QVQLVESGGGLVQAGGSLRLSCSASGGTFRYYTMVWYRKAPGKERELVAAITRGGRTYYADSVKGRFTISRDNAKNTVYLQMNSLKPEDTAVYYCAAVRPRSPVSYENDYWGQGTQVTVSS”, the “polyreactivity (PSR sort gate)” value was “high polyreactivity”. “QVQLVESGGGLVQAGGSLRLSCSASGLIFRYYAMGWYRQAPGKEREFVAAISGRGASTYYADSVKGRFTISRDNSKNTVYLQMNSLKPEDTAVYYCATYFPSAVVAFHMEYWGQGTQVTVSS”: the “polyreactivity (PSR sort gate)” value is “low polyreactivity”. Consider “QVQLVESGGGLVQAGGSLRLSCSASGLTLAPNAMGWYRQAPGKERELVAAITRSGGDTYYADSVKGRFTISRDNAKNTVYLQMNSLKPEDTAVYYCAADYWFRYGTYEYWGQGTQVTVSS”, for which the “polyreactivity (PSR sort gate)” value was “high polyreactivity”.

As to “QVQLVESGGGLVQAGGSLRLSCSASGRTFKVYAMGWYRQAPGKERELVAAISYSGAGTRYADSVKGRFTISRDNAKNTVYLQMNSLKPEDTAVYYCNTDAWARVKRYEYWGQGTQVTVSS”, the “polyreactivity (PSR sort gate)” value is “low polyreactivity”. As for “QVQLVESGGGLVQAGGSLRLSCSASGRTFYSYAMGWYRQPRGKERELVATIRRGGRTNYADSVKGRFTISRDNAKNTVYLLMNSLKPEDTAVYYCAAEDYRSLVTSTYDYWGQGTQVAVSS”, the “polyreactivity (PSR sort gate)” value was “low polyreactivity”. On to “QVQLVESGGGLVQAGGSLRLSCSASGSIFDGYAMGWYRQAPGKEREIVAAISKGGTRTYYADSVMGRFTISRDNAKNTVYLQMNSLKPEDTAFYYCNAYYRREPDDGDYDYWGQGSQVTVSS”, for which the “polyreactivity (PSR sort gate)” value was “high polyreactivity”. On to “QVQLVESGGGLVQAGGSLRLSCSASGSIFSGNTMGWYRQAPGKERELVAAISGGGSTNYADSVKGRFTISRDNAKNTVYLQMNSLKPEDTAVYYCAKDLSLGASRMDYWGQGTQVTVSS”, for which the “polyreactivity (PSR sort gate)” value is “low polyreactivity”. Turning to “QVQLVESGGGLVQAGGSLRLSCSASGSIIGHNAMGWYRQAPGKEREIVAAITWRGSNTYYADSVKGRFTISRDNAKNTVYLQMNSLKPEDTAVYYCAAEFYYRTQWYYYWGQGTQVTVSS”, the “polyreactivity (PSR sort gate)” value is given as “high polyreactivity”. On to “QVQLVESGGGLVQAGGSLRLSCSASGSTFEGYAMGWYRQAPGKERELVAAITSTGSTNYADSVKGRFTISRDNAKNTVYLQMNSLKPEDTAVYYCAGYPGRVYYFLGHDYWVQGTQVTVSS”, for which the “polyreactivity (PSR sort gate)” value was “low polyreactivity”.

As to “QVQLVESGGGLVQAGGSLRLSCSASGSTFESNAMGWYRQAPGKERELVASISGSGGSTFYADSVKGRFTISRDNAKNTVYLQMISLKPEDTAVYYCAAYKEPYYEEYGYWGQGTQVTVSS”, the “polyreactivity (PSR sort gate)” value is “low polyreactivity”.
